Experimental findings from PMC10686484, “Cas9 is mostly orthogonal to human systems of DNA break sensing and repair” are described below.

One data set concerns the target Cas9 (Streptococcus pyogenes, UniProt Q99ZW2 1-1368). The experiment in a line: EMSA; preformed 1 complex with sgRNA, no Mg2+; reported as apparent Kd (EC50); EMSA: 50 mM Tris-HCl pH 7.5, 100 mM NaCl, 1 mM DTT, 0.1 mg/ml BSA (oligo dsDNA only), 10 mM MgCl2 if indicated (always for plasmid), 4 C, 30 min; 10 nM dsDNA or 10 ng/ul plasmid. As to conditions: protein: recombinant; label: 5'-32P on DNA2 (target strand); guide + blunt 35 bp duplex. (In general: Mobility shift assays separate free from complexed probe on a gel.)

For the next data set, the target named is Ku antigen (Ku70/80) (human, UniProt P12956;P13010 2-609;2-732). The experiment in a line: EMSA; EMSA: 50 mM Tris-HCl pH 7.5, 100 mM NaCl, 1 mM DTT, 0.1 mg/ml BSA (oligo dsDNA only), 10 mM MgCl2 if indicated (always for plasmid), 4 C, 30 min; 10 nM dsDNA or 10 ng/ul plasmid. As to conditions: protein: native; copies: 1;1; label: 5'-32P on DNA2 (target strand); blunt 35 bp.
Chain of Ku antigen (Ku70/80) (P12956 2-609, chain 1 of 2): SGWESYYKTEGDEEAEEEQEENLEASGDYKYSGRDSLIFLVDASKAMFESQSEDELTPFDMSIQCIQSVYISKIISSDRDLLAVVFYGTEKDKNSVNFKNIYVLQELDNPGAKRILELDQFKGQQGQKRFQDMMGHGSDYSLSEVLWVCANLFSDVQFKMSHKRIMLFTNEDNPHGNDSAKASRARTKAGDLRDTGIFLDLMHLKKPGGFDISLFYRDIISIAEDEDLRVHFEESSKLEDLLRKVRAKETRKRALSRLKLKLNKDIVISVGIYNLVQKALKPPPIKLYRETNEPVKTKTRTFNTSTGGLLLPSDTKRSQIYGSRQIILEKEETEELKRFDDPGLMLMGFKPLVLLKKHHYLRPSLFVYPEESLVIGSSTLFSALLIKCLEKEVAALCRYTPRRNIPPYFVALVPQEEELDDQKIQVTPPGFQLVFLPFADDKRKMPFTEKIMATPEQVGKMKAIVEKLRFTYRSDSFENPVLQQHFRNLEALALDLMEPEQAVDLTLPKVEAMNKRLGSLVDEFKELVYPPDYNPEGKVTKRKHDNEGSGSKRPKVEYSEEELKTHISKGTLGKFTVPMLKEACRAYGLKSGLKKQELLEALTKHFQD
Chain of Ku antigen (Ku70/80) (P13010 2-732, chain 2 of 2): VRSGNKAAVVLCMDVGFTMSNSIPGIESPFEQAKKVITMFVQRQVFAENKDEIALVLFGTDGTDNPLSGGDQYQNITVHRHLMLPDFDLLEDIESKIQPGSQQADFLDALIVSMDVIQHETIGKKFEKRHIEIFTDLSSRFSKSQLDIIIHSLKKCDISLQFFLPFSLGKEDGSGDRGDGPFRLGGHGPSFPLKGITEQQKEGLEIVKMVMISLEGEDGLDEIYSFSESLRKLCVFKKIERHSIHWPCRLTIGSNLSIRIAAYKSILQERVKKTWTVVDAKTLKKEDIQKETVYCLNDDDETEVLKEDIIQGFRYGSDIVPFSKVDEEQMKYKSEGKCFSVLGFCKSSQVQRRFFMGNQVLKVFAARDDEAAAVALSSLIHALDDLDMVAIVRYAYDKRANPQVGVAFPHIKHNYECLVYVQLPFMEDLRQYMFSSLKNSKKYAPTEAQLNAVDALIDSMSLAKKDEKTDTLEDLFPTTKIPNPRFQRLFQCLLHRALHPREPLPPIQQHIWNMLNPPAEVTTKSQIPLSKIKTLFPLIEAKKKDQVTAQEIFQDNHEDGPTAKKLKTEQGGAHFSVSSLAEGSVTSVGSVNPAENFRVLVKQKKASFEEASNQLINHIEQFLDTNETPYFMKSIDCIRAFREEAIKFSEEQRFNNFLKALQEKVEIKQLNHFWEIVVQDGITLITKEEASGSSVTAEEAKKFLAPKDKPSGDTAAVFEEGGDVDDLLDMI

Data set [1] has as its target T1, RPA (human, UniProt P27694;P15927;P35244 1-616;1-270;1-121). The experiment in a line: EMSA; no Mg2+; reported as Kd; EMSA: 50 mM Tris-HCl pH 7.5, 100 mM NaCl, 1 mM DTT, 0.1 mg/ml BSA (oligo dsDNA only), 10 mM MgCl2 if indicated (always for plasmid), 4 C, 30 min; 10 nM dsDNA or 10 ng/ul plasmid. As to conditions: protein: recombinant; copies: 1;1;1; label: 5'-32P on DNA2 (target strand); blunt 35 bp.

Data set [2] has as its target T1, RPA. The experiment in a line: EMSA; 10 mM Mg2+; reported as Kd; EMSA: 50 mM Tris-HCl pH 7.5, 100 mM NaCl, 1 mM DTT, 0.1 mg/ml BSA (oligo dsDNA only), 10 mM MgCl2 if indicated (always for plasmid), 4 C, 30 min; 10 nM dsDNA or 10 ng/ul plasmid. The following applies: protein: recombinant; copies: 1;1;1; label: 5'-32P on DNA2 (target strand); blunt 35 bp.
For another data set, the target named is PARP2 (murine, UniProt O88554 1-559). The experiment in a line: EMSA; no NAD+, no Mg2+; apparent Kd (EC50), from loss of free DNA; EMSA: 50 mM Tris-HCl pH 7.5, 100 mM NaCl, 1 mM DTT, 0.1 mg/ml BSA (oligo dsDNA only), 10 mM MgCl2 if indicated (always for plasmid), 4 C, 30 min; 10 nM dsDNA or 10 ng/ul plasmid. As to conditions: protein: recombinant; label: 5'-32P on DNA2 (target strand); blunt 35 bp.

In a further data set the target is PARP1 (human, UniProt P09874 1-1014). Described as above. As to conditions: protein: recombinant; label: 5'-32P on DNA2 (target strand); blunt 35 bp.
Chain of PARP1 (P09874 whole entry): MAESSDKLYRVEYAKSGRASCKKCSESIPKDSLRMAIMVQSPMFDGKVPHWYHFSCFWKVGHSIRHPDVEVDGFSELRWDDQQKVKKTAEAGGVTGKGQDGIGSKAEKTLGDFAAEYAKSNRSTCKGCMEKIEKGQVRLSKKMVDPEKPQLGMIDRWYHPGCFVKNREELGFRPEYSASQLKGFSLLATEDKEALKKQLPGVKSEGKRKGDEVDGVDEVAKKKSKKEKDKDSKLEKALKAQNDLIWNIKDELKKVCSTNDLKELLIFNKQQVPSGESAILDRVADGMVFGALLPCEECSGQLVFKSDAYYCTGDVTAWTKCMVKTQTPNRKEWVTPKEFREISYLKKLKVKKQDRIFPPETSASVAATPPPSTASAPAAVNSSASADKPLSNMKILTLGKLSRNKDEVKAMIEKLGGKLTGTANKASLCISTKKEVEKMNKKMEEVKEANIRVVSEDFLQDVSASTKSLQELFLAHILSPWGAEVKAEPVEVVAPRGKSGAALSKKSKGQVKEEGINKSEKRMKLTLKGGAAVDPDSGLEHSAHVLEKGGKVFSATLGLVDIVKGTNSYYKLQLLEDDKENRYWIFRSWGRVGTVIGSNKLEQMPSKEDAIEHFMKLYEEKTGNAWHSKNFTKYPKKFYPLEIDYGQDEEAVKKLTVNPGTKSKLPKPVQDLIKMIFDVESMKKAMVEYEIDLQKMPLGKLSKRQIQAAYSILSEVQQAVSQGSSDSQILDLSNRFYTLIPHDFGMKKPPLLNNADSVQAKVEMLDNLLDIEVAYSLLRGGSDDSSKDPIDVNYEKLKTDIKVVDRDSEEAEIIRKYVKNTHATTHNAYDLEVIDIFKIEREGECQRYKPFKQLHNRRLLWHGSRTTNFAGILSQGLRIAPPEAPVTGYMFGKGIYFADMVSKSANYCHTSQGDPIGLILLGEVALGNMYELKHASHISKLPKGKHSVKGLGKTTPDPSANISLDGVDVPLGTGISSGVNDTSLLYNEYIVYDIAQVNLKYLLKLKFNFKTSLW
The target of the next data set is YB1 (1-219) (human, UniProt P67809 1-219). The experiment in a line: EMSA; 10 mM Mg2+; several complexes; EMSA: 50 mM Tris-HCl pH 7.5, 100 mM NaCl, 1 mM DTT, 0.1 mg/ml BSA (oligo dsDNA only), 10 mM MgCl2 if indicated (always for plasmid), 4 C, 30 min; 10 nM dsDNA or 10 ng/ul plasmid. The following applies: protein: recombinant; label: 5'-32P on DNA2 (target strand); blunt 35 bp.
Chain of YB1 (1-219) (P67809 1-219): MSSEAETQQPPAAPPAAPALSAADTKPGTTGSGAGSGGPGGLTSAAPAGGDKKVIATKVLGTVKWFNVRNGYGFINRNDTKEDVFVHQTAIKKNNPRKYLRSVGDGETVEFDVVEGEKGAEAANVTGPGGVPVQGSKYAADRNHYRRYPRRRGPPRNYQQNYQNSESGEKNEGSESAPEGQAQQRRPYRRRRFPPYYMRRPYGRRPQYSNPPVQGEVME

T1 sequence (P27694 whole entry, chain 1 of 3): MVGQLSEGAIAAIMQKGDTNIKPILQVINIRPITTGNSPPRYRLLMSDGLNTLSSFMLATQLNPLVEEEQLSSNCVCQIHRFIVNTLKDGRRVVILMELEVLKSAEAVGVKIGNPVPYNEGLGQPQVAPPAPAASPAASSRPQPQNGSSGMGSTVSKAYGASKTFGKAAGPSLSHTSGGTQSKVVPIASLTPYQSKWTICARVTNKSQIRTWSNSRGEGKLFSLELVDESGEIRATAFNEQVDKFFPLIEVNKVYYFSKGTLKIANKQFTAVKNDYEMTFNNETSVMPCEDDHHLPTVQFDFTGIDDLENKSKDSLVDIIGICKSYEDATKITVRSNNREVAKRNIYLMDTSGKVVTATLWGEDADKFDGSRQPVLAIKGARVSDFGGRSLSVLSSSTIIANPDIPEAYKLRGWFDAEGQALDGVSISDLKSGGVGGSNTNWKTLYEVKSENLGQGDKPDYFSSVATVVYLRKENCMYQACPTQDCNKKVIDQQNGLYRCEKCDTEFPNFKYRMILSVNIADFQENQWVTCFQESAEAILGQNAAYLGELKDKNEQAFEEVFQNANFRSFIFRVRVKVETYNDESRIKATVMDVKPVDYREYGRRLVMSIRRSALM
T1 sequence (P15927 whole entry, chain 2 of 3): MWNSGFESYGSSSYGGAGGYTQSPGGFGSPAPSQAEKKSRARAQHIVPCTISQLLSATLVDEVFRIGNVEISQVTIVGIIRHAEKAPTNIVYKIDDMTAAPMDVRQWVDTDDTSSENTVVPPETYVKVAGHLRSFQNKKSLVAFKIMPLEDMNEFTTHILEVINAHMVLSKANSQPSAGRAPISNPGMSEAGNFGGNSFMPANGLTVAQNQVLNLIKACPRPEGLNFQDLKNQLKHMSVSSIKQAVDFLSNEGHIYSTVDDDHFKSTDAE
T1 sequence (P35244 whole entry, chain 3 of 3): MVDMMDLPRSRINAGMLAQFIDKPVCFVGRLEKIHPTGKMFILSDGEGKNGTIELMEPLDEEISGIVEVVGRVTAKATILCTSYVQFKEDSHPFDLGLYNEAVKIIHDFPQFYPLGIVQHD
Chain of Cas9 (Q99ZW2 whole entry): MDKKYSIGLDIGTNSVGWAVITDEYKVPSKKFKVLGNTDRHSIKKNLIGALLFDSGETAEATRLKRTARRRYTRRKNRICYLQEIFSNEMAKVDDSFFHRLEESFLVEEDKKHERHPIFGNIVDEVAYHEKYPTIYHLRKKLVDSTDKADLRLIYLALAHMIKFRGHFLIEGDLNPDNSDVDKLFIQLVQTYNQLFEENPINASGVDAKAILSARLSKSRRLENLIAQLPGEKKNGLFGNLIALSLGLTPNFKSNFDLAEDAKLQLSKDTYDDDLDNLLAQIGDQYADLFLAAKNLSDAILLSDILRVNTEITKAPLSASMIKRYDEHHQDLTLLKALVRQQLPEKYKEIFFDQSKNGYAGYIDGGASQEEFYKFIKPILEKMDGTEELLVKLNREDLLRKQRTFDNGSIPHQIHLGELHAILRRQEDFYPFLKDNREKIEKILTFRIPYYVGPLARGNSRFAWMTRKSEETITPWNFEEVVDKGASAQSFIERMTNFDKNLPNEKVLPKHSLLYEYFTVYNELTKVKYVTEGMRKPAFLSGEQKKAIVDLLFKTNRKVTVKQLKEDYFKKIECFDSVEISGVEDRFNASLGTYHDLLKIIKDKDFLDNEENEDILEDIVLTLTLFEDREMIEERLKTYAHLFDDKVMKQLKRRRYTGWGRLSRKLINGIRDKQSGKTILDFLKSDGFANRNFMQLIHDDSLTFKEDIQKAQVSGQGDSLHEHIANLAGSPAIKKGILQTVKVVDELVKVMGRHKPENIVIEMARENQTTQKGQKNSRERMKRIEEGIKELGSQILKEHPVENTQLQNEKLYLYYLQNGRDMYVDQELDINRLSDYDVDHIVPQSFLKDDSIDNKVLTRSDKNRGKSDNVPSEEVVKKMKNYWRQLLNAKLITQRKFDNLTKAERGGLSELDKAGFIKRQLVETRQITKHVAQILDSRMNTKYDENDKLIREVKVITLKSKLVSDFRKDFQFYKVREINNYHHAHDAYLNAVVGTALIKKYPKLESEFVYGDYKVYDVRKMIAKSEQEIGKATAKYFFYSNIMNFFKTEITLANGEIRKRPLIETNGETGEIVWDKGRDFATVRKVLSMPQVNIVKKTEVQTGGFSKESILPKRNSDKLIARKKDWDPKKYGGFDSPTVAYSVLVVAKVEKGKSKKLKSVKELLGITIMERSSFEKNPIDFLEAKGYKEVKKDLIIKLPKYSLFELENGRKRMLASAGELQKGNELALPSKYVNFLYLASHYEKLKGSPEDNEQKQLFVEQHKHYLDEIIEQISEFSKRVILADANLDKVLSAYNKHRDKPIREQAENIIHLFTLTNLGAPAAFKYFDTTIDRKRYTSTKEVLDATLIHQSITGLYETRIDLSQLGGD

B1: sgRNA (pLK1) + dsDNA1/2* (mixed)
RNA: GGAUAACUCAAUUUGUAAAAAAGUUUUAGAGCUAGAAAUAGCAAGUUAAAAUAAGGCUAGUCCGUUAUCAACUUGAAAAAGUGGCACCGAGUCGGUGCUUUU
DNA 1: CTGATAACTCAATTTGTAAAAAATGGTACTGAGCA
DNA 2: TGCTCAGTACCATTTTTTACAAATTGAGTTATCAG
B1: the “apparent K (half saturation)” value with Cas9 came out at 7.7 ± 0.4 nM.

B2: dsDNA1/2* (dsDNA)
DNA 1: B1 DNA 1
DNA 2: B1 DNA 2
With B2, the binding result with Ku antigen (Ku70/80) and with YB1 (1-219) was “binds” throughout. Further, the “apparent K (half saturation)” value came out at 90 ± 20 nM with RPA [1], 125 ± 40 nM with RPA [2], 200 ± 16 nM with PARP2 and 53 ± 5 nM with PARP1.
